The target of this test is T1, KSHV glycoprotein L (gL), residues 21-167 (Kaposi sarcoma-associated herpesvirus …, UniProt F5HDB7 21-167).
T1 construct: source: High Five cells (baculovirus), secreted with gH, purified (HisTrap, Resource S, Superdex 200)
As to the kind of experiment: crystal structure; KSHV gHgL-LBD complex, mixed on ice 1 h and purified on Superdex 200 Increase; 3.2 Å. The note with it: both partners purified.

B1: KSHV glycoprotein H (gH), residues 22-698 (domain or fragment)
chain: ATGALPTTATTITRSATQLINGRTNLSIELEFNGTSFFLNWQNLLNVITEPALTELWTSAEVAEDLRVTLKKRQSLFFPNKTVVISGDGHRYTCEVPTSSQTYNITKGFNYSALPGHLGGFGINARLVLGDIFASKWSLFARDTPEYRVFYPMNVMAVKFSISIGNNESGVALYGVVSEDFVVVTLHNRSKEANETASHLLFGLPDSLPSLKGHATYDELTFARNAKYALVAILPKDSYQTLLTENYTRIFLNMTESTPLEFTRTIQTRIVSIEARRACAAQEAAPDIFLVLFQMLVAHFLVARGIAEHRFVEVDCVCRQYAELYFLRRISRLCMPTFTTVGYNHTTLGAVAATQIARVSATKLASLPRSSQETVLAMVQLGARDGAVPSSILEGIAMVVEHMYTAYTYVYTLGDTERKLMLDIHTVLTDSCPPKDSGVSEKLLRTYLMFTSMCTNIELGEMIARFSKPDSLNIYRAFSPCFLGLRYDLHPAKLRAEAPQSSALTRTAVARGTSGFAELLHALHLDSLNLIPAINCSKITADKIIATVPLPHVTYIISSEALSNAVVYEVSEIFLKSAMFISAIKPDCSGFNFSQIDRHIPIVYNISTPRRGCPLCDSVIMSYDESDGLQSLMYVTNERVQTNLFLDKSPFFDNNNLHIHYLWLRDNGTVVEIRGMY
notes: also called KSHV gH; source: High Five cells (baculovirus), secreted with gL, purified (HisTrap, Resource S, Superdex 200)
On to B1, for which the binding result is reported as “binds”.

Values taken from paper PMC7687889, “Molecular basis of EphA2 recognition by gHgL from gammaherpesviruses” (Nature Communications, 2020).
